Measured values: IntAct's records for PubMed 19665976

B1: Atlastin-1 (Homo sapiens), Q8WXF7 (parent)
chain: MAKNRRDRNSWGGFSEKTYEWSSEEEEPVKKAGPVQVLIVKDDHSFELDETALNRILLSEAVRDKEVVAVSVAGAFRKGKSFLMDFMLRYMYNQESVDWVGDYNEPLTGFSWRGGSERETTGIQIWSEIFLINKPDGKKVAVLLMDTQGTFDSQSTLRDSATVFALSTMISSIQVYNLSQNVQEDDLQHLQLFTEYGRLAMEETFLKPFQSLIFLVRDWSFPYEFSYGADGGAKFLEKRLKVSGNQHEELQNVRKHIHSCFTNISCFLLPHPGLKVATNPNFDGKLKEIDDEFIKNLKILIPWLLSPESLDIKEINGNKITCRGLVEYFKAYIKIYQGEELPHPKSMLQATAEANNLAAVATAKDTYNKKMEEICGGDKPFLAPNDLQTKHLQLKEESVKLFRGVKKMGGEEFSRRYLQQLESEIDELYIQYIKHNDSKNIFHAARTPATLFVVIFITYVIAGVTGFIGLDIIASLCNMIMGLTLITLCTWAYIRYSGEYRELGAVIDQVAAALWDQGSTNEALYKLYSAAATHRHLYHQAFPTPKSESTEQSEKKKM
partner: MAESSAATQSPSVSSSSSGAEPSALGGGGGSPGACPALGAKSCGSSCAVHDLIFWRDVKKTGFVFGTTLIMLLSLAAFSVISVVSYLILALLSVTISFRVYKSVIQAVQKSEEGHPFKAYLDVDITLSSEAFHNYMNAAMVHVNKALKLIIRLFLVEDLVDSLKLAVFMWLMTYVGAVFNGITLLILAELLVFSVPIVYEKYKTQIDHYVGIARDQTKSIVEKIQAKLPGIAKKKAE

Variants of: B1
Conditions: with Rtn3, Q9ES97-3

Variant | effect of a mutation on the interaction
MAKNRRDRNSWGGFSEKTYEWSSEEEEPVKKAGPVQVLIVKDDHSFELDETALNRILLSEAVRDKEVVAVSVAGAFRKGASFLMDFMLRYMYNQESVDWVGDYNEPLTGFSWRGGSERETTGIQIWSEIFLINKPDGKKVAVLLMDTQGTFDSQSTLRDSATVFALSTMISSIQVYNLSQNVQEDDLQHLQLFTEYGRLAMEETFLKPFQSLIFLVRDWSFPYEFSYGADGGAKFLEKRLKVSGNQHEELQNVRKHIHSCFTNISCFLLPHPGLKVATNPNFDGKLKEIDDEFIKNLKILIPWLLSPESLDIKEINGNKITCRGLVEYFKAYIKIYQGEELPHPKSMLQATAEANNLAAVATAKDTYNKKMEEICGGDKPFLAPNDLQTKHLQLKEESVKLFRGVKKMGGEEFSRRYLQQLESEIDELYIQYIKHNDSKNIFHAARTPATLFVVIFITYVIAGVTGFIGLDIIASLCNMIMGLTLITLCTWAYIRYSGEYRELGAVIDQVAAALWDQGSTNEALYKLYSAAATHRHLYHQAFPTPKSESTEQSEKKKM [K80A] | decreasing interaction
